From patent publication US20030186281A1, “Modified tetracycline repressor protein compositions and methods of use” (priority 2001, published 2003)

B1: TetRrevAD3/10: revTetR(BD) N18Y G24G L51L D53Y A54V (protein)
chain: MSRLDKSKVINSALELLYEVGIEGLTTRKLAQKLGVEQPTLYWHVKNKRALLYVLAVEILARHHDYSLPAAGESWQSFLRNNAMSFRRALLRYRDGAKVHLGTRPDEKQYDTVETQLRFMTENGFSLRDGLYAISAVSHFTLGAVLEQQEHTAALTDRPAAPDENLPPLLREALQIMDSDDGEQAFLHGLESLIRGFEVQLTALLQIV
modifications: Modified tetracycline repressor
notes: revTetR(BD) N18Y G24G L51L D53Y A54V
B2: TetRrevAF4/5: revTetR(BD) E15G L16L D95A V99G (protein)
chain: MSRLDKSKVINSALGLLNEVGIEGLTTRKLAQKLGVEQPTLYWHVKNKRALLDALAVEILARHHDYSLPAAGESWQSFLRNNAMSFRRALLRYRAGAKGHLGTRPDEKQYDTVETQLRFMTENGFSLRDGLYAISAVSHFTLGAVLEQQEHTAALTDRPAAPDENLPPLLREALQIMDSDDGEQAFLHGLESLIRGFEVQLTALLQIV
modifications: Modified tetracycline repressor
notes: revTetR(BD) E15G L16L D95A V99G
B3: TetRrevAF4/4: revTetR(BD) G24A R94P D95E G102D (protein)
chain: MSRLDKSKVINSALELLNEVGIEALTTRKLAQKLGVEQPTLYWHVKNKRALLDALAVEILARHHDYSLPAAGESWQSFLRNNAMSFRRALLRYPEGAKVHLDTRPDEKQYDTVETQLRFMTENGFSLRDGLYAISAVSHFTLGAVLEQQEHTAALTDRPAAPDENLPPLLREALQIMDSDDGEQAFLHGLESLIRGFEVQLTALLQIV
modifications: Modified tetracycline repressor
notes: revTetR(BD) G24A R94P D95E G102D
B4: TetRrevAF3/8: revTetR(BD) E15V L16L N18H E19D V20D R94P D95H H100N (protein)
chain: MSRLDKSKVINSALVLLHDDGIEGLTTRKLAQKLGVEQPTLYWHVKNKRALLDALAVEILARHHDYSLPAAGESWQSFLRNNAMSFRRALLRYPHGAKVNLGTRPDEKQYDTVETQLRFMTENGFSLRDGLYAISAVSHFTLGAVLEQQEHTAALTDRPAAPDENLPPLLREALQIMDSDDGEQAFLHGLESLIRGFEVQLTALLQIV
modifications: Modified tetracycline repressor
notes: revTetR(BD) E15V L16L N18H E19D V20D R94P D95H H100N
B5: TetRrevAtc4-13: revTetR(BD) E58N I59T L60F H63Y (protein)
chain: MSRLDKSKVINSALELLNEVGIEGLTTRKLAQKLGVEQPTLYWHVKNKRALLDALAVNTFARYHDYSLPAAGESWQSFLRNNAMSFRRALLRYRDGAKVHLGTRPDEKQYDTVETQLRFMTENGFSLRDGLYAISAVSHFTLGAVLEQQEHTAALTDRPAAPDENLPPLLREALQIMDSDDGEQAFLHGLESLIRGFEVQLTALLQIV
modifications: Modified tetracycline repressor
notes: revTetR(BD) E58N I59T L60F H63Y
B6: TetRrevAF3/6: revTetR(BD) E23K D95H L101H (protein)
chain: MSRLDKSKVINSALELLNEVGIKGLTTRKLAQKLGVEQPTLYWHVKNKRALLDALAVEILARHHDYSLPAAGESWQSFLRNNAMSFRRALLRYRHGAKVHHGTRPDEKQYDTVETQLRFMTENGFSLRDGLYAISAVSHFTLGAVLEQQEHTAALTDRPAAPDENLPPLLREALQIMDSDDGEQAFLHGLESLIRGFEVQLTALLQIV
modifications: Modified tetracycline repressor
notes: revTetR(BD) E23K D95H L101H

System: tet operator sequence
Test: β-galactosidase activity of a tetracycline-regulated promoter in transformed E. coli with revTetR, in the presence and absence of anhydrotetracycline (atc)
Type: cell-based, Escherichia coli
Details: for β-Galactosidase Activity, Cultured Without ATC: RevTetR isolate cultured in the absence of anhydrotetracycline (ATC); for β-Galactosidase Activity, Cultured With ATC: RevTetR isolate cultured in the presence of anhydrotetracycline (ATC)
Procedure: The relative activity of revTetR repressors was determined at 28° C. and 37° C. for each clone by measuring β-galactosidase activity of a tetracycline-regulated promoter in transformed Escherichia coli in the presence and absence of the tetracycline analog, anhydrotetracycline (atc). The relative β-galactosidase activity was measured in standard Miller units and is presented as the percent of maximal expression as measured in the absence of Tet repressor. […] With respect to each mutant, as well as the wild-type controls, FIG. 2 provides two horizontal bars; the upper horizontal bar represents the level of β-galactosidase activity in the absence of anhydrotetracycline (−atc) while the lower horizontal bar represents the level of β-galactosidase activity in the presence of anhydrotetracycline (+atc).
The pool of mutated Tet repressors was cloned into plasmid pWH1411 (Baumeister et al., 1992, Proteins: Struct. Funct. Genet. 14: 168-77), which carries a TetR(B) gene, to provide a TetR(BD) chimera that included, as the amino-terminal portion, amino acid residues 1 to 50 of the TetR(B) gene and, as the carboxyl-terminal portion, amino acid residues 51 to 208 of the TetR(D) gene. The resulting plasmid pool was screened in a genetic assay which positively selects for a functional interaction between a Tet repressor and its cognate operator using E. coli strain WH207(λWH25) (the construction of this strain is described in detail in Wissmann et al., (1991) Genetics 128: 225-32). In this E. coli strain, tet operators direct the expression of divergently arranged β-galactosidase (lacZ) and Lac repressor (lacI) genes and the lac regulatory region directs the expression of a galactokinase (galK) gene on plasmid pWH414. Binding of Tet repressors to tet operators turns off transcription of the lacI and lacZ genes. The absence of Lac repressor allows for expression of the galK gene, which enables the E. coli strain to use galactose as a sole carbon source, which serves as one marker. The lacZ^− phenotype serves as a second marker. Thus, bacteria containing Tet repressors which bind to tet operators, have a Gal^+, lacZ^− phenotype. Bacteria containing wild-type Tet repressors have a Gal^+, lacZ^− phenotype in the absence of tetracycline. Modified “reverse” Tet repressors (revTetR) were selected based upon a Gal^+, lacZ^− phenotype in the presence of tetracycline.
The ability of each revTetR clone to bind to its cognate tet operator sequence and regulate transcription in a prokaryotic organism, Escherichia coli, in the presence and absence of a tetracycline analog (anhydrotetracycline, atc) was determined (Table 3, FIG. 2). The relative ratios of non-repressed to repressed levels of transcription for the 15 clones range from about 1.4-fold to about 50-fold at 28° C. and from about 1.3-fold to 40-fold at 37° C. For example, clone 4b comprising an amino acid substitution of glutamic acid for glycine at position 96 (e.g., SEQ ID NO. 24) repressed transcription 19-fold at 37° C. but to a less extent at 28° C. (5.7-fold, Table 3). Furthermore, clones 14, 5a and 7 comprising the arginine for glycine substitution at position 96 and further comprising a substitution or substitutions of serine for threonine at position 103 and valine for glutamic acid at position 114; leucine for proline at position 159; or glutamine to histidine at position 188, respectively, have pronouncedly different activities.
wherein each underlined base was present in approximately 85% of the oligonucleotides, while the remaining approximately 15% of the oligonucleotides contained one of the other three, non-wild type bases at that position. Similar mutagenic, partially randomized oligonucleotides were prepared for mutagenesis of the coding regions for amino acids 14-25 and 93-102. It was predicted that, according to a binomial distribution, each oligonucleotide would contain three to four mutations. […]

Molecule	β-Galactosidase Activity, Cultured Without ATC	β-Galactosidase Activity, Cultured With ATC
B1	89.1669	3.5004
B2	105.33	0.9927
B3	94.4528	3.8273
B4	95.5476	2.7257
B5	98.8175	8.1397
B6	77.2272	1.0546
